# Reference: publication PMC3627919, “Novel Split-Luciferase-Based Genetically Encoded Biosensors for Noninvasive Visualization of Rho GTPases” (PLoS ONE, 2013)
# T1: Nfluc416-WASP (human, UniProt P42768 220-288)
# T1 sequence (looked up): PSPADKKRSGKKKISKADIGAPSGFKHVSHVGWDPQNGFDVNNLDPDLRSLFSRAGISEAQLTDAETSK
# Target: T1, Nfluc416-WASP
# Experiment: split reporter (BiFC, NanoBiT); bimolecular luminescence complementation (split firefly luciferase) in living HEK 293 cells, 24 h after transient cotransfection of the pair (50 ng/well) with pRL-tk; D-luciferin 150 ug/ml; IVIS CCD camera; ratio FL at 600 nm to RL at 500 nm; wild-type pairs also with co-expressed GEF or GAP catalytic domains
# Conditions: partners not purified
binder,measurement,value
Cfluc398-CDC42(G12V) (natural protein) not shown,"luminescence signal, fold of the active mutant over the wild type",2.77 fold
same,"reconstituted luminescence (FL/RL), fold over CDC42 F37A",14.3 fold
same,"reconstituted luminescence (FL/RL), fold over CDC42 T17N",5.6 fold
same,"reconstituted luminescence (FL/RL), fold over CDC42 WT",2.7 fold
